From patent US8445431 come the findings set out here.

The series concerns T1, [KGHK-Cu]+ copper(II) complex of KGHK.
T1 sequence: KGHK

Regarding “recombinant isoform of human Angiotensin Converting Enzyme (rhACE) corresponding to the ectodomain somatic ACE”, the “catalytic rate constant kobs for enzyme deactivation under oxidative conditions (ascorbate, dioxygen)” value is on record as “kobs˜2.86×10^-2 min^-1 for enzyme deactivation”.
